These results are taken from PMC6768651, “A ubiquitin-like domain controls protein kinase D dimerization and activation by trans-autophosphorylation” (The Journal of Biological Chemistry, 2019).

B1: DKF-1 ULD–C1a (DKF-1^1–151) [C. elegans] / itself (parent)
chain: MDGSQGSTDYGDHVVLRYGGTREMVPLIRHEQMLDMLMERARQIVQGFGNLDTRNMYLFRHEYNSPTLLYPITSASQITSGSILEIILVDRTEAAVIPHVVEPESYMRPTFCDFCGEMLTGLMRQGVKCKNCNGNFHKRCSNAARNNCGAP
B2: DKF-1 ULD (DKF-1^1–94) [C. elegans] / itself (parent)
chain: MDGSQGSTDYGDHVVLRYGGTREMVPLIRHEQMLDMLMERARQIVQGFGNLDTRNMYLFRHEYNSPTLLYPITSASQITSGSILEIILVDRTEA

Test in all cases: SEC-MALS (static light scattering)
What all share (settings): with itself
In general terms: In gel filtration, larger molecules generally elute earlier.

In test [1] the parent is B1.
In test [2] the parent is B1. This is another data set of the same source.
The variants in test [3] derive from B2. The source holds these as a separate data set.
The variants in test [4] derive from B2. The source holds these as a separate data set.

For the variant MDGSQGSTDYGDHVVLRYGGTREMVPLIRHEQMLDMLMERARQIVQGFGNLDTRNMYLERHEYNSPTLLYPITSASQITSGSILEIILVDRTEAAVIPHVVEPESYMRPTFCDFCGEMLTGLMRQGVKCKNCNGNFHKRCSNAARNNCGAP [chain 1 F59E], the screen value with itself [1] came out at 1.09; with itself [2], 18.7 kDa.
As for MDGSQGSTDYGDHVVLRYGGTREMVPLIRHEQMLDMLMERARQIVQGFGNLDTRNMYLERHEYNSPTLLYPITSASQITSGSILEIILVDRTEA [chain 1 F59E], the values for the screen value with itself [3] and in the test with itself [4] were 1.04 and 11.3 kDa, respectively.
